Experiments:
Assay in all cases: cell_activity
[1] = system: ZFN 46163 (synthetic); conditions: pair with 46164, K562
[2] = system: ZFN 46216 (synthetic); conditions: pair with 46217, K562
[3] = system: ZFN 46217 (synthetic); conditions: pair with 46216, K562
[4] = system: ZFN 45844 (synthetic); conditions: pair with 45843, CD34+ cells
[5] = system: ZFN 47021 (synthetic); conditions: pair with 45843
[6] = system: ZFN 46164 (synthetic); conditions: pair with 46163, K562
[7] = system: ZFN 46228 (synthetic); conditions: pair with 46226, K562
[8] = system: ZFN 46240 (synthetic); conditions: pair with 46241, K562
[9] = system: ZFN 46209 (synthetic); conditions: pair with 46208, K562
[10] = system: ZFN 46156 (synthetic); conditions: pair with 46158, K562
[11] = system: ZFN 46786 (synthetic); conditions: pair with 46880
[12] = system: ZFN 46801 (synthetic); conditions: pair with 46880
[13] = system: ZFN 46816 (synthetic); conditions: pair with 47923
[14] = system: ZFN 46934 (synthetic); conditions: pair with 47923
[15] = system: ZFN 46189 (synthetic); conditions: pair with 46188, K562
[16] = system: ZFN 46188 (synthetic); conditions: pair with 46189, K562
[17] = system: ZFN 46246 (synthetic); conditions: pair with 46247, K562
[18] = system: ZFN 46208 (synthetic); conditions: pair with 46209, K562
[19] = system: ZFN 46181 (synthetic); conditions: pair with 46180, K562
[20] = system: ZFN 45843 (synthetic); conditions: pair with 45844, CD34+ cells
[21] = system: ZFN 46880 (synthetic); conditions: pair with 46801
[22] = system: ZFN 47923 (synthetic); conditions: pair with 46801
[23] = system: ZFN 46158 (synthetic); conditions: pair with 46156, K562, Cel-I
[24] = system: ZFN 46226 (synthetic); conditions: pair with 46228, K562
[25] = system: ZFN 46230 (synthetic); conditions: pair with 46229, K562
[26] = system: ZFN 46180 (synthetic); conditions: pair with 46181, K562
[27] = system: ZFN 46247 (synthetic); conditions: pair with 46246, K562
[28] = system: ZFN 46229 (synthetic); conditions: pair with 46230, K562
[29] = system: ZFN 46241 (synthetic); conditions: pair with 46240, K562

For “TAGAATTGGCCTGGGACATTCATTATTT (double strand) [46163 target]”, the activity [1] was 21.9 % NHEJ.

“CAGGCTGGGCTGGACAGAGGGGTCCCAC (double strand) [46216 target]” gave an activity [2] of 16.6 % NHEJ.

For “GTGTGCATCTTGTGTGCTTGGTCGGCAC (double strand) [46217 target]”, the activity [3] was 16.6 % NHEJ.

For “TCACAGGCTCCAGGAAGGGTTTGGCCTC (double strand) [45844 target]”, the activity [4] was 78 % NHEJ (D0) and the activity [5] was 82 % NHEJ (D0).

“GAAGGGAAGTGGGTATGGGGCAGCCCAT (double strand) [46164 target]” gave an activity [6] of 21.9 % NHEJ.

Sequence “ATAGGGGTCGCGGTAGGGAGTTGTCGGC (double strand) [46228 target]” has an activity [7] of 37.8 % NHEJ.

“CTCACAGGACATGCAGCAGTGTGTGCCG (double strand) [46240 target]” showed an activity [8] of 25 % NHEJ.

For “GCCTGGGTGTGCATCTTGTGTGCTTGGT (double strand) [46209 target]”, the activity [9] was 28 % NHEJ.

Sequence “TGGCCTGGGACATTCATTATTTAGCCAC (double strand) [46156 target]” has an activity [10] of 30.4 % NHEJ.

In the case of “AAAGCAACTGTTAGCTTGCACTAGACTA (double strand) [45848/46801 target]”, the activity [11] is reported as 71 % NHEJ (D0), the activity [12] is reported as 87 % NHEJ (D0) and the activity [13] is reported as 29.9 % indels. For the same sequence, the activity [14] was 80 % NHEJ (D0).

In the case of “ACACCCTGTGATCTTGTGGGACCCCTCT (double strand) [46189 target]”, the activity [15] is reported as 12.8 % NHEJ.

“CCTGAGAAGGTGGGGAGCTCACAGCCTC (double strand) [46188 target]” showed an activity [16] of 12.8 % NHEJ.

Work on “GTGTGGCTCCTTAAGGTGACCCAGCAGC (double strand) [46246 target]” yielded an activity [17] of 17.3 % NHEJ.

In the case of “GGGCTGGACAGAGGGGTCCCACAAGATC (double strand) [46208 target]”, the activity [18] is reported as 28 % NHEJ.

“GCAATGCTTGGAGGCTGTGAGCTCCCCA (double strand) [46181 target]” showed an activity [19] of 15.2 % NHEJ.

For “AAGCAACTGTTAGCTTGCACTAGACTAG (double strand) [45843 target]”, the activity [20] was 78 % NHEJ (D0).

For “CACAGGCTCCAGGAAGGGTTTGGCCTCT (double strand) [45849/46880 target]”, the activity [21] was 87 % NHEJ (D0) and the activity [22] was 82 % NHEJ (D0).

Sequence “TCTAGGAAGGGAAGTGGGTATGGGGCAG (double strand) [46158 target]” has an activity [23] of 30.4 % NHEJ.

“GTGCCGACCAAGCACACAAGATGCACAC (double strand) [46226 target]” showed an activity [24] of 37.8 % NHEJ.

For “TCGCGGTAGGGAGTTGTCGGCACACACT (double strand) [46230 target]”, the activity [25] was 37.2 % NHEJ.

For “TCATCCTGGTACCAGGAAGGCAATGGGC (double strand) [46180 target]”, the activity [26] was 15.2 % NHEJ.

“CCGTCTACATAGAGGCCCTTCCTGCTTG (double strand) [46247 target]” showed an activity [27] of 17.3 % NHEJ.

“CCTATCAGTGCCGACCAAGCACACAAGA (double strand) [46229 target]” showed an activity [28] of 37.2 % NHEJ.

“TCCCCAAGGCTGTGCCCAGCCTTCAGTG (double strand) [46241 target]” showed an activity [29] of 25 % NHEJ.
